These are literature values, as cited in publication PMC12411175.

The target of the data set is insulin receptor (Homo sapiens) (UniProt P06213).
UniProt P06213, sequence (P06213 763-1382): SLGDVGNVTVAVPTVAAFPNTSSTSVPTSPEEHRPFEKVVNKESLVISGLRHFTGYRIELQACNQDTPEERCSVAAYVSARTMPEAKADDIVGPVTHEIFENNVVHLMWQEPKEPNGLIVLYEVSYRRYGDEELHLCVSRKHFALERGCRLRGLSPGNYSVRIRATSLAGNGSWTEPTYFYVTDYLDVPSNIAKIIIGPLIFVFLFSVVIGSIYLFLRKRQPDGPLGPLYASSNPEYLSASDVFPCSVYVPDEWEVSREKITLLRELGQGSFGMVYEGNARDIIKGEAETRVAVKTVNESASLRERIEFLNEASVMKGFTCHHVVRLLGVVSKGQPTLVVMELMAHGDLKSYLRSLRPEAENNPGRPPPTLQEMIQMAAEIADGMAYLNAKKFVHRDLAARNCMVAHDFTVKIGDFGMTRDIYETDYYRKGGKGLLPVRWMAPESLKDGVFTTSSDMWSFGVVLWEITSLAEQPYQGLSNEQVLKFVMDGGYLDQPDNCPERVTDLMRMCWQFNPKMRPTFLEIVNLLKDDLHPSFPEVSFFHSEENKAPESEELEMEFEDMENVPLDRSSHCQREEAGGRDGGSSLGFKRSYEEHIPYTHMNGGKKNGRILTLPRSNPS

insulin, sequence (P01308 90-110): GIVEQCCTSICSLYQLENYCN

Regarding insulin (from UniProt P01308), the Kd is 0.02 nM.

In general, Kd refers to the concentration at which binding is half-saturated.
